Changes are numbered by the printed parent chain.
How the values were obtained:
Assay in all cases: SPR; EMSA: 100 mM KCl, 25 mM HEPES-K pH 7.6, 12.5 mM MgCl2, 10 uM ZnCl2, 0.1 mM EDTA, 10% glycerol, 3 mM DTT, 0.5 mM PMSF, 50 nM DNA, RT 30 min; SPR: 100 mM KCl, 12.5 mM MgCl2, 10 uM ZnCl2, 0.1 mM EDTA, 0.05% P20, 25 C
Conditions in all cases: protein: recombinant; tags: as P1; copies: 1;1;1;1
mSNAPc#2 SNAP190-Y389A = biological target: T1, mSNAPc#2 SNAP190-Y389A (Homo sapiens, UniProt Q5SXM2;Q92966;Q16533;O75971 1-505;1-411;1-268;1-98, Y389A)
T1 sequence 1: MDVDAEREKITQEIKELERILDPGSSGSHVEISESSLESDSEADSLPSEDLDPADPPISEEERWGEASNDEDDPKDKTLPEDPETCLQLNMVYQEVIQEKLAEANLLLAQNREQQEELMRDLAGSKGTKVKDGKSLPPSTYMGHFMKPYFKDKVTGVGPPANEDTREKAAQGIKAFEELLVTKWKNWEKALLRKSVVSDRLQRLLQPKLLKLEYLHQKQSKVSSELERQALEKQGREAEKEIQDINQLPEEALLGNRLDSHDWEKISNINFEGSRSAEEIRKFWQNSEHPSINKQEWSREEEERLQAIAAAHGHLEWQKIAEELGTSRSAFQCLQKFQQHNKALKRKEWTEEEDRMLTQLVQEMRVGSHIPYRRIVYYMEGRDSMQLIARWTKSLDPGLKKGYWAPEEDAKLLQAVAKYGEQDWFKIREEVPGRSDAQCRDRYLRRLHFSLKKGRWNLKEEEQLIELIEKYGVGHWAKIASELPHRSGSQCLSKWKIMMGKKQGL
T1 sequence 2: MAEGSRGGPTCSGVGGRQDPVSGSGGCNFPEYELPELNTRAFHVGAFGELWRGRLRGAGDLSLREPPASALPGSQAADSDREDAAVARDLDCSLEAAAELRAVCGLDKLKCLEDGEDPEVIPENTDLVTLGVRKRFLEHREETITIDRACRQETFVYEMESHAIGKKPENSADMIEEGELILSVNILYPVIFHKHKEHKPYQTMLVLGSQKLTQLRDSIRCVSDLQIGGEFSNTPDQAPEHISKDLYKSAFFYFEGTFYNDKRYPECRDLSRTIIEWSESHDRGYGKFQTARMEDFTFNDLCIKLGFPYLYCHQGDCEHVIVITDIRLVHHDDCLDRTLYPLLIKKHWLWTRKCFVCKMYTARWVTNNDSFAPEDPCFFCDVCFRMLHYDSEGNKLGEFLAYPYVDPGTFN
T1 sequence 3: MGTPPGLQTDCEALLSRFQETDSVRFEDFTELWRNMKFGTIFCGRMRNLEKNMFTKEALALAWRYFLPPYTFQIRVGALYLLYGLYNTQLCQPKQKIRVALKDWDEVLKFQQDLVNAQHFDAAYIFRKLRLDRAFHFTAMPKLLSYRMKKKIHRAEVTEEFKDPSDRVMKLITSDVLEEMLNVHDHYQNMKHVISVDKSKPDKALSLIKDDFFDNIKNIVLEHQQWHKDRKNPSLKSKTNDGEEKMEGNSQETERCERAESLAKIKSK
T1 sequence 4: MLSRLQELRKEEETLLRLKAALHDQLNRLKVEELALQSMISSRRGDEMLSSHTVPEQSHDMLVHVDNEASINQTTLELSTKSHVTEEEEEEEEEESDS

mSNAPc#2 2Mu = biological target: T2, mSNAPc#2 2Mu (Homo sapiens, UniProt Q5SXM2;Q92966;Q16533;O75971 1-505;1-411;1-268;1-98, Y389A;R151A)
T2 sequence 1: T1 sequence 1
T2 sequence 2: T1 sequence 2 with R151A
T2 sequence 3: T1 sequence 3
T2 sequence 4: T1 sequence 4

mSNAPc#2 SNAP190-R445A = biological target: T3, mSNAPc#2 SNAP190-R445A (Homo sapiens, UniProt Q5SXM2;Q92966;Q16533;O75971 1-505;1-411;1-268;1-98, R445A)
T3 sequence 1: T1 sequence 1 with A389Y, R445A
T3 sequence 2: T1 sequence 2
T3 sequence 3: T1 sequence 3
T3 sequence 4: T1 sequence 4

B1: 25 bp hU6-1 PSE (SPR) (dsDNA)
DNA 1: TGCTTACCGTAACTTGAAAGTATTT
DNA 2: AAATACTTTCAAGTTACGGTAAGCA
mSNAPc#2 SNAP190-Y389A
  Kd: 1080 nM
mSNAPc#2 2Mu
  Kd: 1620 nM
mSNAPc#2 SNAP190-R445A
  Kd: 603 nM

Reference: paper PMC9652321, “Structural basis of human SNAPc recognizing proximal sequence element of snRNA promoter”
